Source: paper PMC4558169, “Anchoring of both PKA-RIIα and 14-3-3θ regulates retinoic acid induced 16 mediated phosphorylation of heat shock protein 70” (Oncotarget, 2015)

Tests used:
14-3-3θ = 14-3-3θ (UniProt P27348); test: anti-Flag co-IP, 14-3-3θ blot; conditions: reference: wild type; sites S325
[1] = target: T1, Flag-tagged retinoic acid induced 16 (RAI16), full length (UniProt Q86V87 1-743); test: co-IP; Flag-tagged RAI16 or its mutants expressed in HEK293T cells, alone or with Ha-tagged PKA-RIIα; anti-Flag immunoprecipitation, endogenous 14-3-3θ detected with anti-14-3-3θ antibody; cells untreated, treated with forskolin or with forskolin + PKImyr; conditions: partners not purified
T1 construct: 743 residues by the printed fragment limits; also called Flag-RAI16; Fam160B2; source: HEK293T, transfected (pcDNA3.1), in lysate
T1 sequence (Q86V87 whole entry, the tested form may be a part): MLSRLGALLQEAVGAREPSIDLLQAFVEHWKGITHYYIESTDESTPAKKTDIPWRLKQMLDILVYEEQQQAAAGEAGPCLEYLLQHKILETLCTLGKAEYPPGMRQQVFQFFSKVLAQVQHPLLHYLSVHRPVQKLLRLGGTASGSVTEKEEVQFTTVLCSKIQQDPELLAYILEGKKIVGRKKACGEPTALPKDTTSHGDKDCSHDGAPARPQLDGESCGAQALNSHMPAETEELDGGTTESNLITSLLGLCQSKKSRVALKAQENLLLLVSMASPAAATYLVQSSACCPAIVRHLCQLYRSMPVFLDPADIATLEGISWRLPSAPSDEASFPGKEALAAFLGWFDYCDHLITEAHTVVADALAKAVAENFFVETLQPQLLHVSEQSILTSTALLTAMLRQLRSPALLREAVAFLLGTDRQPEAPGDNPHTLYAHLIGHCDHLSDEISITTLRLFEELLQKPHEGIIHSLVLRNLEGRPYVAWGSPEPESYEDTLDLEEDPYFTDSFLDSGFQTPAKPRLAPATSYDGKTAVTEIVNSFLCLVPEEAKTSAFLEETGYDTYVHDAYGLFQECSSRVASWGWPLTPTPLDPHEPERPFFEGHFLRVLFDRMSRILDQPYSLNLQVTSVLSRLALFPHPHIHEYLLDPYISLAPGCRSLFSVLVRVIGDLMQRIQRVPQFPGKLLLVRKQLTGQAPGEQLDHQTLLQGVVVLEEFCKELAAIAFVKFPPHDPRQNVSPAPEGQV

RAI16 (retinoic acid induced 16) (from UniProt Q86V87) S325A
binding against the reference (14-3-3θ): lost

B1: endogenous 14-3-3θ (natural protein, human (endogenous in HEK293T), UniProt P27348 1-245, looked up)
chain: MEKTELIQKAKLAEQAERYDDMATCMKAVTEQGAELSNEERNLLSVAYKNVVGGRRSAWRVISSIEQKTDTSDKKLQLIKDYREKVESELRSICTTVLELLDKYLIANATNPESKVFYLKMKGDYFRYLAEVACGDDRKQTIDNSQGAYQEAFDISKKEMQPTHPIRLGLALNFSVFYYEILNNPELACTLAKTAFDEAIAELDTLNEDSYKDSTLIMQLLRDNLTLWTSDSAGEECDAAEGAEN
notes: 14-3-3 protein theta, endogenous in HEK293T cells; source: endogenous, HEK293T lysate
fold change of co-precipitated 14-3-3θ with forskolin against untreated cells [1]: 3.25 fold
